The values that follow come from patent publication US20040018971A1 (published 2004).

The target in experiment [1] is T1, HLA-A*0201 (human).
T1 construct: also called HLA-A2.1; A2.1
The experiment in a line: competitive inhibition of 125I-labeled probe peptide binding to purified HLA-A*0201.

In experiment [2] the target is T2, HLA-DR4w4 (DRB1*0401) (human).
T2 construct: Purified HLA class II molecule
Kind of experiment: competition with 125I-labelled probe peptide on purified HLA-DR, gel filtration; IC50 of standard peptide / IC50 of test peptide.

Experiment [3] deals with HLA-DR1 (DRB1*0101) (human). Described as above.
Experiment [4] concerns the target T3, HLA-DR7 (DRB1*0701) (human).
T3 construct: Purified HLA class II molecule
The experiment is described as above.

Experiment [5] deals with HLA-A*1101 (purified HLA class I molecule) (human). The experiment in a line: inhibition of 125I probe peptide binding to purified HLA; ratio to standard peptide; minus sign not explained.
The target in experiment [6] is T4, HLA-A*0301 (purified HLA class I molecule) (human).
T4 construct: also called A3
The experiment in a line: inhibition of 125I probe peptide binding to purified HLA; ratio to standard peptide.

Experiment [7] has as its target HLA-DR1 (DRB1*0101), purified HLA class II molecule (human). The experiment in a line: competition with 125I-labelled probe peptide, purified HLA-DR.
Experiment [8] has as its target T4, HLA-A*0301 (purified HLA class I …). Kind of experiment: inhibition of 125I probe peptide binding to purified HLA; ratio to standard peptide; minus sign not explained.
In experiment [9] the target is HLA-A*6802 (human). The experiment in a line: competition with 125I probe peptide for purified HLA.
Experiment [10] concerns the target T5, HLA-A*0101 (human).
T5 construct: Purified HLA molecule, 5 to 500 nM in the assay; also called HLA-A1
The experiment in a line: competition with a 125I-labelled probe peptide for purified HLA-A*0101, gel filtration; ratio against the A*0101 standard peptide 944.02 [..] (25 nM). A general note: Size exclusion chromatography separates by hydrodynamic size, large species first.

Experiment [11] addresses HLA-A*0301 (purified HLA class I molecule) (human). Kind of experiment: competition vs 125I standard peptide, purified HLA.
In experiment [12] the target is T6, HLA-A*1101 (purified HLA class I molecule) (human).
T6 construct: Purified MHC molecule
The experiment in a line: competition vs 125I standard peptide, purified HLA.

The target in experiment [13] is T7, HLA-A*6801 (purified HLA class I molecule) (human).
T7 construct: Purified MHC molecule
Kind of experiment: competition vs 125I standard peptide, purified HLA.

The target of experiment [14] is T8, HLA-A*3301 (purified HLA class I molecule) (human).
T8 construct: Purified MHC molecule
Kind of experiment: competition vs 125I standard peptide, purified HLA.

Experiment [15] has as its target T9, HLA-A*3101 (purified HLA class I molecule) (human).
T9 construct: Purified MHC molecule
Kind of experiment: competition vs 125I standard peptide, purified HLA.

Experiment [16] deals with T10, HLA-A*0101 (human).
T10 construct: also called HLA-A1
Kind of experiment: competition with 125I-labelled probe peptide for purified HLA-A*0101, gel filtration.

The target of experiment [17] is T11, HLA-DRB1*0701 (human).
T11 construct: also called DR7
Kind of experiment: competition with 125I-labeled standard peptide, purified HLA-DR, gel filtration.

The target of experiment [18] is T12, HLA-DRB1*0401 (human).
T12 construct: also called DR4w4
The description is as above.

Experiment [19] deals with HLA-A*0206 (human). The experiment in a line: competition with 125I probe peptide for purified HLA.
For experiment [20], the target named is HLA-A*0202 (human). Described as above.
Experiment [21] addresses HLA-A*0203 (human). The experiment is described as above.

In general, IC50 refers to the concentration that inhibits the measured activity by half. Lower therefore signals greater potency in that assay. QLMPYGCLL [Her2/neu.799] registered an IC50 in experiment [1] not above 500 nM.
Regarding DMKLRLPASPETHLD (also called Her2/neu.30) [HER2/neu peptide DMKLRLPASPETHLD (position 30)], the relative binding ratio was -0.0025 ratio in experiment [2], 0.001 ratio in experiment [3] and -0.0013 ratio in [4].
Regarding ESMPNPEGR [HER2/neu peptide, position 280, 9 amino acids], the results for the relative binding ratio in experiment [5] and in experiment [6] were -0.0002 ratio (IC50 standard / IC50 test) and 0.0003 ratio (IC50 standard / IC50 test), respectively.
Turning to QPDVRPQPPSPREGP (also called Her2/neu.1142) [HER2/neu DR supermotif exemplary 15-mer QPDVRPQPPSPREGP (position 1142)], the relative binding ratio in experiment [7] is 0.0007 ratio (IC50 standard / IC50 test).
As to CSPMCKGSR (also called Her2/neu.195 (9-mer)) [HER2/neu peptide, position 195, 9 amino acids], the relative binding ratio in experiment [8] was -0.0008 ratio (IC50 standard / IC50 test); in experiment [5] it was -0.0001 ratio (IC50 standard / IC50 test).
In [9], YMIMVKCWM [Her2/neu.952 (9-mer) YMIMVKCWM] gave an IC50 of 1000 nM.
In the case of DSECRPRFR (also called Her2/neu.962 (9-mer)) [HER2/neu peptide, position 962, 9 amino acids], the relative binding ratio in experiment [8] and in experiment [5] was -0.0002 ratio (IC50 standard / IC50 test) in each case.
VTACPYNY (also called Her2/neu.296) [HER2/neu peptide, position 296, 8 amino acids]: the “relative binding ratio (IC50 of standard peptide / IC50 of test peptide)” value in experiment [10] was determined as 0.1 ratio.
As for ALCRWGLLLA [Her2/neu.5], the IC50 in experiment [1] was not above 500 nM.
As to ILWKDIFHK (also called Her2/neu.167) [HER2/neu peptide, position 167, 9 amino acids], the relative binding ratio in experiment [11] was 0.28 ratio (IC50 standard/IC50 test); in [12] it was 0.31 ratio (IC50 standard/IC50 test); in experiment [13] it was 0.0046 ratio (IC50 standard/IC50 test); in experiment [14], 0.03 ratio (IC50 standard/IC50 test); in experiment [15] it was 0.22 ratio (IC50 standard/IC50 test).
With ETELVEPLTPSGAMP (also called Her2/neu.693) [HER2/neu peptide ETELVEPLTPSGAMP (position 693)], the relative binding ratio is -0.0025 ratio in experiment [2], 0.006 ratio in experiment [3] and -0.0013 ratio in experiment [4].
With KVLRENTSPK [HER2/neu peptide, position 753, 10 amino acids], the relative binding ratio is 0.38 ratio (IC50 standard/IC50 test) in experiment [11]; 0.22 ratio (IC50 standard/IC50 test) in experiment [12]; 0.0008 ratio (IC50 standard/IC50 test) in [13]; 0.0012 ratio (IC50 standard/IC50 test) in experiment [14]; 0.0068 ratio (IC50 standard/IC50 test) in experiment [15].
Consider DMGDLVDAEEY [HER2/neu peptide, position 1013, 11 amino acids], for which, in experiment [16], the relative binding ratio was 0.0027 ratio (IC50 of standard peptide / IC50 of test peptide).

B1: HER2/neu DR supermotif exemplary peptide KEILDEAYVMAGVGS (position 765) (peptide)
peptide: KEILDEAYVMAGVGS
notes: synthetic 15-mer; also called Her2/neu.765
Consider B1, for which the values for the relative binding ratio in [17] and in experiment [18] were -0.0011 ratio (standard IC50 / test IC50) and 0.0073 ratio (standard IC50 / test IC50), respectively.
For LLNWCMQIAK [HER2/neu peptide, position 822, 10 amino acids], the relative binding ratio in experiment [11] is 0.14 ratio (IC50 standard/IC50 test); in experiment [12] it was 0.14 ratio (IC50 standard/IC50 test); in experiment [13] it was 0.0086 ratio (IC50 standard/IC50 test); in [14] it was 0.0088 ratio (IC50 standard/IC50 test); in [15], 0.01 ratio (IC50 standard/IC50 test).
The molecule GLACHQLCA [Her2/neu.508] yielded an IC50 in experiment [1] not above 500 nM.
On to PSGVKPDLSY [HER2/neu peptide, position 601, 10 amino acids], for which the relative binding ratio in experiment [16] is 0.001 ratio (IC50 of standard peptide / IC50 of test peptide).
As to QLFEDNYALA [Her2/neu.106 (10-mer) QLFEDNYALA], the IC50 in experiment [9] was found to be 74 nM; in experiment [19], 218 nM; in experiment [20], 662 nM; in [21], 9.1 nM.
With GTDMKLRLPASPETH (also called Her2/neu.28) [HER2/neu peptide GTDMKLRLPASPETH (position 28)], the values for the relative binding ratio in experiment [2], in [3] and in experiment [4] were -0.0025 ratio, 0.001 ratio and -0.0013 ratio, respectively.
With TLEEITGY (also called Her2/neu.402 (8-mer)) [HER2/neu peptide, position 402, 8 amino acids], in experiment [10], the “relative binding ratio (IC50 of standard peptide / IC50 of test peptide)” value is -0.0021 ratio.
In turn, YMIMVKCWM [Her2/neu.952] came in with an IC50 in experiment [1] not above 500 nM.
For the molecule ETHLDMLRHLY (also called Her2/neu.40) [HER2/neu peptide, position 40, 11 amino acids], the relative binding ratio in [16] was 0.28 ratio (IC50 of standard peptide / IC50 of test peptide).
The same measure, in the same setting: with CSKPCARVCY [HER2/neu peptide, position 334, 10 amino acids] the figure was 0.0016 ratio (IC50 of standard peptide / IC50 of test peptide).
As to PTHDPSPLQRY [HER2/neu peptide, position 1102, 11 amino acids], the relative binding ratio in experiment [16] was 0.016 ratio (IC50 of standard peptide / IC50 of test peptide).
As to ALCRWGLLLA [Her2/neu.5 (10-mer) ALCRWGLLLA], the IC50 worked out at 2500 nM in [9], 1950 nM in [19], 1960 nM in experiment [20] and 12 nM in experiment [21].
On to CAGGCARCK (also called Her2/neu.220 (9-mer)) [HER2/neu peptide, position 220, 9 amino acids], for which the relative binding ratio in [8] and in experiment [5] was -0.0002 ratio (IC50 standard / IC50 test) throughout.
Take IKVLRENTSPKANKE (also called Her2/neu.752) [HER2/neu peptide IKVLRENTSPKANKE (position 752)]: the relative binding ratio is -0.0032 ratio in experiment [2], -0.0005 ratio in experiment [3] and -0.0011 ratio in experiment [4].
Consider QLMPYGCLL [Her2/neu.799 QLMPYGCLL], for which the IC50 in experiment [19] was found to be 712 nM; in [20] it was 977 nM; in [21], 114 nM.
In the case of VFETLEEITGY (also called Her2/neu.399) [HER2/neu peptide, position 399, 11 amino acids], the “relative binding ratio (IC50 of standard peptide / IC50 of test peptide)” value in experiment [10] is 0.0045 ratio.
On the same count and under the same terms, the figure for TLEEITGYLY (also called Her2/neu.402) [HER2/neu peptide, position 402, 10 amino acids] is 1.1 ratio.
With ETLEEITGYLY (also called Her2/neu.401) [HER2/neu peptide, position 401, 11 amino acids], in experiment [16], the relative binding ratio is 0.44 ratio (IC50 of standard peptide / IC50 of test peptide).
On to TCSPQPEY (also called Her2/neu.1132) [HER2/neu peptide, position 1132, 8 amino acids], for which, in experiment [10], the “relative binding ratio (IC50 of standard peptide / IC50 of test peptide)” value was -0.0021 ratio.
Same read-out and setting: the figure for THDPSPLQRY (also called Her2/neu.1103) [HER2/neu peptide, position 1103, 10 amino acids] is 0.0015 ratio.
As for ILKETELRK [HER2/neu peptide, position 714, 9 amino acids], the relative binding ratio was 0.019 ratio (IC50 standard/IC50 test) in experiment [11]; 0.0023 ratio (IC50 standard/IC50 test) in [12]; 0.0001 ratio (IC50 standard/IC50 test) in [13]; 0.001 ratio (IC50 standard/IC50 test) in experiment [14]; 0.0009 ratio (IC50 standard/IC50 test) in [15].
For the molecule GMEHLREVR (also called Her2/neu.346 (9-mer)) [HER2/neu peptide, position 346, 9 amino acids], the relative binding ratio in [8] and in experiment [5] was -0.0002 ratio (IC50 standard / IC50 test) throughout.
In [1], QLFEDNYALA [Her2/neu.106] showed an IC50 not above 500 nM.
